Usually Kd stands for a measure of binding affinity in units of concentration.

For the experiment, the target named is T1, microtubules (polymerized porcine tubulin) (porcine, UniProt P02550 1-451; P02554 1-445).
T1 construct: alpha-tubulin of porcine tubulin; beta-tubulin of porcine tubulin; Polymer of alpha/beta-tubulin dimers; 14-protofilament MTs were selected for cryo-EM; The species is stated only for the co-sedimentation assay; also called MT; MTs; source: porcine tubulin, polymerized (stabilised with 10 uM paclitaxel for co-sedimentation; GMPCPP-MT for cryo-EM)
Briefly: co-sedimentation; purified MTBDs (1-32 uM) mixed with 5 uM paclitaxel-stabilised porcine MTs; 100 mM PIPES pH 6.8, 50 mM NaCl, 2 mM MgCl2, 1 mM EGTA; 210,000 x g, 25 °C, 10 min; pellets on SDS-PAGE, densitometry, one-site curve fitting. The following applies: both partners purified.

B1: MTBD-Low, MTBD(S3097C/V3222C) (domain or fragment)
chain: KCIQDIEPTILEAQRGVKNIKKQQLTEIRSMVNPPSGVKIVMEAVCAILGYQFSNWRDIQQFIRKDDFIHNIVHYDTTLHMKPQIRKYMEEEFLSDPNFTYETINRASKACGPLYQWVNAQINFSKCLENVDPLRQE
modifications: intramolecular disulfide bond between C3097 (CC1) and C3222 (CC2)
Molecule B1 had a Kd greater than 200 µM.
